# From patent US20240076315A1 (ALLIFE MEDICINE ZHUHAI, published 2024)
# No end group written: not given here.
# B1: KHL peptide with FITC as the fluorescent marker (peptide)
# peptide: KHLHYHSSVRYG
# modifications: also: FITC label, attachment site not given here
# notes: also called KHL peptide conjugate
# Biological target: T1, cell surface antigen PSMA on Lncap cell line with high PSMA expression (UniProt Q04609 1-750, limits assumed)
# T1 construct: whole, on cells; Lncap is a prostate cancer cell line; also called Lncap cells
# Test: immunofluorescence on Lncap cells (high PSMA expression), FITC marker
# Experimental: Immunofluorescence detection was performed on KHL peptides in Lncap cell lines with high PSMA expression and PC3 cell lines with low PSMA expression, using FITC as the fluorescent marker.
# T1 sequence (Q04609 whole entry): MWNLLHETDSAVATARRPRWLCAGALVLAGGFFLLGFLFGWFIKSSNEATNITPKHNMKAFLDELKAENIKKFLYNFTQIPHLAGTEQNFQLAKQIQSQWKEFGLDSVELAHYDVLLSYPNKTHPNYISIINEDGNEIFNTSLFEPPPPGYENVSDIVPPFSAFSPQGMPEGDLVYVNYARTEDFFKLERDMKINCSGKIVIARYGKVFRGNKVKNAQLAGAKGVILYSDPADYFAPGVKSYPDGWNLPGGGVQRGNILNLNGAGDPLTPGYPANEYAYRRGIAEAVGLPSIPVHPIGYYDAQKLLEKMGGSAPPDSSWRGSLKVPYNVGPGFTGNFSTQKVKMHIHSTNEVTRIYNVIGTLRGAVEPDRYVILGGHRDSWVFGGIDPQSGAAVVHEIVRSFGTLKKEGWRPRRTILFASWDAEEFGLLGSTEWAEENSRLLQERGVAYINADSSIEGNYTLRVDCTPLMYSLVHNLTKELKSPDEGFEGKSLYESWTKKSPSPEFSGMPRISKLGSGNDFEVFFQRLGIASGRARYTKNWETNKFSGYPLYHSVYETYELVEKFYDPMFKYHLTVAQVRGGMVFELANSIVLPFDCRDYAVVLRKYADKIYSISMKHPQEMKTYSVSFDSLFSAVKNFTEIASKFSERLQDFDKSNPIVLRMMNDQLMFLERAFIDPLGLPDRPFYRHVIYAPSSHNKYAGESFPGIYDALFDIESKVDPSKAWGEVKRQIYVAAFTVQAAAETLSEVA
binder,measurement,value
B1,binding result,binds
